Source: paper PMC5516924 (Biochemistry, 2016)
Positions count from the first letter of the chain named. Names and notes keep the numbering of the source.

B1: yGsy2-R589A/R592A (enzyme, Saccharomyces cerevisiae)
chain: MSRDLQNHLLFETATEVANRVGGIYSVLKSKAPITVAQYKDHYHLIGPLNKATYQNEVDILDWKKPEAFSDEMRPVQHALQTMESRGVHFVYGRWLIEGAPKVILFDLDSVRGYSNEWKGDLWSLVGIPSPENDFETNDAILLGYTVAWFLGEVAHLDSQHAIVAHFHEWLAGVALPLCRKRRIDVVTIFTTHATLLGRYLCASGSFDFYNCLESVDVDHEAGRFGIYHRYCIERAAAHSADVFTTVSQITAFEAEHLLKRKPDGILPNGLNVIKFQAFHEFQNLHALKKEKINDFVRGHFHGCFDFDLDNTLYFFIAGRYEYKNKGADMFIEALARLNYRLKVSGSKKTVVAFIVMPAKNNSFTVEALKGQAEVRALENTVHEVTTSIGKRIFDHAIRYPHNGLTTELPTDLGELLKSSDKVMLKRRILALRRPEGQLPPIVTHNMVDDANDLILNKIRQVQLFNSPSDRVKMIFHPEFLNANNPILGLDYDEFVRGCHLGVFPSYYEPWGYTPAECTVMGVPSITTNVSGFGAYMEDLIETNQAKDYGIYIVDRRFKAPDESVEQLVDYMEEFVKKTRRQRINQRNATEALSDLLDWKRMGLEYVKARQLALRRGYPDQFRELVGEELNDSNMDALAGGKKLKVARPLSVPGSPRDLRSNSTVYMTPGDLGTLQEVNNADDYFSLGVNPAADDDDDGPYADDS
B2: yGsy2-R581C/R592C (enzyme, Saccharomyces cerevisiae)
chain: B1 chain with R581C, A589R, A592C
B3: yGsy2-R581A/R592A (enzyme, Saccharomyces cerevisiae)
chain: B1 chain with R581A, A589R

Legend:
crystal structure = biological target: the molecule itself; assay: crystal structure
SEC = biological target: the molecule itself; assay: SEC

Row | Protein | stoichiometry N (crystal structure) | stoichiometry N (SEC)
1 | B1 | 4 | 
2 | B2 |  | 4
3 | B3 |  | 4
